Measured values: US20180155451A1 (published 2018)

T1: FcγRIIa R (human FcγRIIa, allotype R, Arg at position 131), extracellular domain with C-terminal His tag (human, UniProt P12318 34-217)
T1 construct: extracellular domain; expressed in FreeStyle293 cells; analyte in Biacore; also called 2aR; FcgRIIa R
T1 sequence (looked up): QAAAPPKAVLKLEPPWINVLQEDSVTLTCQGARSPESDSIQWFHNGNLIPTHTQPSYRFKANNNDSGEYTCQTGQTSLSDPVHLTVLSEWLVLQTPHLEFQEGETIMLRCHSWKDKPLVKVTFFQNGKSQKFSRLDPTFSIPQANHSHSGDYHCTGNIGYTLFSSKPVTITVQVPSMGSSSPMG

B1: GpH7-A5/GpH7-B3 variant A330_05P/GpL16-k0 (antibody, human IgG1, kappa)
heavy 1: not shown
heavy 2: not shown
light: DIVMTQSPLSLPVTPGEPASISCQASESLVHSNRNTYLHWYLQKPGQSPQLLIYKVSNRFSGVPDRFSGSGSGTDFTLKISRVEAEDVGVYYCSQNTHVPPTFGQGTKVEIERTVAAPSVFIFPPSDEQLKSGTASVVCLLNNFYPREAKVQWKVDNALQSGNSQESVTEQDSKDSTYSLSSTLTLSKADYEKHKVYACEVTHQGLSSPVTKSFNRGEC
notes: also called He Ab A330_05P
B2: GpH7-A5/GpH7-B3 variant E333_02A/GpL16-k0 (antibody, human IgG1, kappa)
heavy 1: not shown
heavy 2: not shown
light: B1 light
notes: also called He Ab E333_02A
B3: GpH7-A5/GpH7-B3 variant L234_04F/GpL16-k0 (antibody, human IgG1, kappa)
heavy 1: not shown
heavy 2: not shown
light: B1 light
notes: also called He Ab L234_04F
B4: GpH7-A5/GpH7-B3 variant K334_01G/GpL16-k0 (antibody, human IgG1, kappa)
heavy 1: not shown
heavy 2: not shown
light: B1 light
notes: also called He Ab K334_01G
B5: GpH7-A5/GpH7-B3 variant I336_18N/GpL16-k0 (antibody, human IgG1, kappa)
heavy 1: not shown
heavy 2: not shown
light: B1 light
notes: also called He Ab I336_18N
B6: GpH7-A5/GpH7-B3 variant I336_08L/GpL16-k0 (antibody, human IgG1, kappa)
heavy 1: not shown
heavy 2: not shown
light: B1 light
notes: also called He Ab I336_08L
B7: GpH7-A5/GpH7-B3 variant I336_03V/GpL16-k0 (antibody, human IgG1, kappa)
heavy 1: not shown
heavy 2: not shown
light: B1 light
notes: also called He Ab I336_03V
B8: GpH7-A5/GpH7-B3 variant K334_09D/GpL16-k0 (antibody, human IgG1, kappa)
heavy 1: not shown
heavy 2: not shown
light: B1 light
notes: also called He Ab K334_09D
B9: GpH7-A5/GpH7-B3 variant E333_03V/GpL16-k0 (antibody, human IgG1, kappa)
heavy 1: not shown
heavy 2: not shown
light: B1 light
notes: also called He Ab E333_03V
B10: GpH7-A5/GpH7-B3 variant E333_04F/GpL16-k0 (antibody, human IgG1, kappa)
heavy 1: not shown
heavy 2: not shown
light: B1 light
notes: also called He Ab E333_04F
B11: GpH7-A5/GpH7-B3 variant H268_02A/GpL16-k0 (antibody, human IgG1, kappa)
heavy 1: not shown
heavy 2: not shown
light: B1 light
notes: also called He Ab H268_02A
B12: GpH7-A5/GpH7-B3 variant K326_08L/GpL16-k0 (antibody, human IgG1, kappa)
heavy 1: not shown
heavy 2: not shown
light: B1 light
notes: also called He Ab K326_08L
B13: GpH7-A5/GpH7-B3 variant E333_20W/GpL16-k0 (antibody, human IgG1, kappa)
heavy 1: not shown
heavy 2: not shown
light: B1 light
notes: also called He Ab E333_20W
B14: GpH7-A5/GpH7-B3 variant K326_07I/GpL16-k0 (antibody, human IgG1, kappa)
heavy 1: not shown
heavy 2: not shown
light: B1 light
notes: also called He Ab K326_07I
B15: GpH7-A5/GpH7-B3 variant G236_15Y/GpL16-k0 (antibody, human IgG1, kappa)
heavy 1: not shown
heavy 2: not shown
light: B1 light
notes: also called He Ab G236_15Y
B16: GpH7-A5/GpH7-B3 variant I336_02A/GpL16-k0 (antibody, human IgG1, kappa)
heavy 1: not shown
heavy 2: not shown
light: B1 light
notes: also called He Ab I336_02A
B17: GpH7-A5/GpH7-B3 variant H268_18N/GpL16-k0 (antibody, human IgG1, kappa)
heavy 1: not shown
heavy 2: not shown
light: B1 light
notes: also called He Ab H268_18N
B18: GpH7-A5/GpH7-B3 variant I332_01G/GpL16-k0 (antibody, human IgG1, kappa)
heavy 1: not shown
heavy 2: not shown
light: B1 light
notes: also called He Ab I332_01G
B19: GpH7-A5/GpH7-B3 variant E333_09D/GpL16-k0 (antibody, human IgG1, kappa)
heavy 1: not shown
heavy 2: not shown
light: B1 light
notes: also called He Ab E333_09D
B20: GpH7-A5/GpH7-B3 variant A330_07I/GpL16-k0 (antibody, human IgG1, kappa)
heavy 1: not shown
heavy 2: not shown
light: B1 light
notes: also called He Ab A330_07I
B21: GpH7-A5/GpH7-B3 variant I336_06M/GpL16-k0 (antibody, human IgG1, kappa)
heavy 1: not shown
heavy 2: not shown
light: B1 light
notes: also called He Ab I336_06M
B22: GpH7-A5/GpH7-B3 variant E333_13S/GpL16-k0 (antibody, human IgG1, kappa)
heavy 1: not shown
heavy 2: not shown
light: B1 light
notes: also called He Ab E333_13S
B23: GpH7-A5/GpH7-B3 variant I332_06M/GpL16-k0 (antibody, human IgG1, kappa)
heavy 1: not shown
heavy 2: not shown
light: B1 light
notes: also called He Ab I332_06M
B24: GpH7-B3 variant Y296_14T/GpL16-k0 (antibody, human IgG1, kappa)
heavy: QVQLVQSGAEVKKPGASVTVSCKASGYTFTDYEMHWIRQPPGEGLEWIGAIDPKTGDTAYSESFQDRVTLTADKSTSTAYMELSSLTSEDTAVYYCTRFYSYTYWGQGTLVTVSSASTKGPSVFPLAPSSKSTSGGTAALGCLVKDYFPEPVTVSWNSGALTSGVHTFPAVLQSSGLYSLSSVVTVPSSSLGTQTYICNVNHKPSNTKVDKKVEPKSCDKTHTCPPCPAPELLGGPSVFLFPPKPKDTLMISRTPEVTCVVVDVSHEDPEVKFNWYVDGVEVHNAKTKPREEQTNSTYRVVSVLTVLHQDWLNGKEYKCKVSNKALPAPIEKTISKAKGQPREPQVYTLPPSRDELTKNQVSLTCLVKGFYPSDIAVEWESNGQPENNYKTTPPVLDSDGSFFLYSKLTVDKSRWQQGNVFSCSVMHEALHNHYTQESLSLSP
light: B1 light
notes: homodimerized antibody, mutation in both H chains; also called Ho Ab
B25: GpH7-B3 variant Y296_10E/GpL16-k0 (antibody, human IgG1, kappa)
heavy: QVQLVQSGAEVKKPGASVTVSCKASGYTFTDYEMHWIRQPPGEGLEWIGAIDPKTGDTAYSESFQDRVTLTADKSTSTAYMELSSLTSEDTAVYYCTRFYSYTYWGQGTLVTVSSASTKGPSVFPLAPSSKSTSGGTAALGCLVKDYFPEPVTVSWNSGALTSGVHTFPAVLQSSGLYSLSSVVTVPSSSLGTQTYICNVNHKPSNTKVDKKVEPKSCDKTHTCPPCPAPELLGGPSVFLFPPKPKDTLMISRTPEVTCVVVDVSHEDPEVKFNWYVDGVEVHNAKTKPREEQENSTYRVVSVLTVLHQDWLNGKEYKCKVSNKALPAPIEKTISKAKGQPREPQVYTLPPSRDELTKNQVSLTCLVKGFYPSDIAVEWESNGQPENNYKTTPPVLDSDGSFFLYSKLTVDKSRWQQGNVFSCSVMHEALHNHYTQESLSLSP
light: B1 light
notes: as for B24
B26: GpH7-B3 variant T335_05P/GpL16-k0 (antibody, human IgG1, kappa)
heavy: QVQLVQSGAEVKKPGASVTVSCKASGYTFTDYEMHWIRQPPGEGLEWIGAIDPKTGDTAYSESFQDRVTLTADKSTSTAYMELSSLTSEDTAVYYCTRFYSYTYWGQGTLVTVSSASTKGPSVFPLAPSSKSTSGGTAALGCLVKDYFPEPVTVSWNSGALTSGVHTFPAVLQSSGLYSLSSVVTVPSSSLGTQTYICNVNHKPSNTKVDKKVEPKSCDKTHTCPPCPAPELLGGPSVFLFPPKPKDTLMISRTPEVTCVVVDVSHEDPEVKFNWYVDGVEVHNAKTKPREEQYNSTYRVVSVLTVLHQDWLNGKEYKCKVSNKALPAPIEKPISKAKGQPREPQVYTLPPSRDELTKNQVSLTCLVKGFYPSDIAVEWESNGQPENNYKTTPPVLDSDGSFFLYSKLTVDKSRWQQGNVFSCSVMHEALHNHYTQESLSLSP
light: B1 light
notes: as for B24
B27: GpH7-B3 variant T335_10E/GpL16-k0 (antibody, human IgG1, kappa)
heavy: not shown
light: B1 light
notes: as for B24
B28: GpH7-B3 variant T335_18N/GpL16-k0 (antibody, human IgG1, kappa)
heavy: not shown
light: B1 light
notes: as for B24
B29: GpH7-B3 variant Y296_19Q/GpL16-k0 (antibody, human IgG1, kappa)
heavy: not shown
light: B1 light
notes: as for B24
B30: GpH7-B3 variant S337_18N/GpL16-k0 (antibody, human IgG1, kappa)
heavy: not shown
light: B1 light
notes: as for B24
B31: GpH7-B3 variant Y296_06M/GpL16-k0 (antibody, human IgG1, kappa)
heavy: not shown
light: B1 light
notes: as for B24
B32: GpH7-B3 variant S337_12R/GpL16-k0 (antibody, human IgG1, kappa)
heavy: not shown
light: B1 light
notes: as for B24
B33: GpH7-B3 variant T335_16H/GpL16-k0 (antibody, human IgG1, kappa)
heavy: not shown
light: B1 light
notes: as for B24
B34: GpH7-B3 variant Y296_16H/GpL16-k0 (antibody, human IgG1, kappa)
heavy: not shown
light: B1 light
notes: as for B24
B35: GpH7-B3 variant V266_06M/GpL16-k0 (antibody, human IgG1, kappa)
heavy: not shown
light: B1 light
notes: as for B24
B36: GpH7-B3 variant Y296_09D/GpL16-k0 (antibody, human IgG1, kappa)
heavy: not shown
light: B1 light
notes: as for B24
B37: GpH7-B3 variant S337_15Y/GpL16-k0 (antibody, human IgG1, kappa)
heavy: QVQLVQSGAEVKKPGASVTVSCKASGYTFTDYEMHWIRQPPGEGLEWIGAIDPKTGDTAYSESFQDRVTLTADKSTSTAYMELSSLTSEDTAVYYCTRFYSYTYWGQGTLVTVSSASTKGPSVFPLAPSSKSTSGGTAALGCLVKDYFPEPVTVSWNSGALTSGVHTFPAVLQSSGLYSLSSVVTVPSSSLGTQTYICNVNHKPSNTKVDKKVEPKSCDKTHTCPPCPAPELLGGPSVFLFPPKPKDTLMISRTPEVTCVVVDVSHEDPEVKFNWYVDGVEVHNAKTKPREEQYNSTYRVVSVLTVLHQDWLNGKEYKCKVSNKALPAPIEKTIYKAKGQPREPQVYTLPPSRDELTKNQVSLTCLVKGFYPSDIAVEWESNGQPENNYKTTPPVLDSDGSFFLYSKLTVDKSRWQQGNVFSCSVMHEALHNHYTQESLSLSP
light: B1 light
notes: as for B24
B38: GpH7-B3 variant S337_19Q/GpL16-k0 (antibody, human IgG1, kappa)
heavy: not shown
light: B1 light
notes: as for B24
B39: GpH7-B3 variant T335_13S/GpL16-k0 (antibody, human IgG1, kappa)
heavy: not shown
light: B1 light
notes: as for B24
B40: GpH7-B3 variant Y296_04F/GpL16-k0 (antibody, human IgG1, kappa)
heavy: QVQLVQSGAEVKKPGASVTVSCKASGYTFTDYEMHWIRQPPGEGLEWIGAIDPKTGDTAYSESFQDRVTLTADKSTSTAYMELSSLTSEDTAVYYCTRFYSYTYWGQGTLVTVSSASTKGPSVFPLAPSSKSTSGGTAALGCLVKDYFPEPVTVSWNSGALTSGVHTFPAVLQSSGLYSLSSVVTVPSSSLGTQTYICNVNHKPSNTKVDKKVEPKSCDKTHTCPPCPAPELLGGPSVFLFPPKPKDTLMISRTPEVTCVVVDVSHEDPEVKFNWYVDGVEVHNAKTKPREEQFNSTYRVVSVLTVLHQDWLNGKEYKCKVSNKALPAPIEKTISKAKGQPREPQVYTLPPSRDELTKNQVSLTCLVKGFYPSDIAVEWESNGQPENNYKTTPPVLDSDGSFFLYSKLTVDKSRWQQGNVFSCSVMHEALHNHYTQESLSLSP
light: B1 light
notes: as for B24
B41: GpH7-B3 variant T335_12R/GpL16-k0 (antibody, human IgG1, kappa)
heavy: not shown
light: B1 light
notes: as for B24
B42: GpH7-B3 variant Y296_13S/GpL16-k0 (antibody, human IgG1, kappa)
heavy: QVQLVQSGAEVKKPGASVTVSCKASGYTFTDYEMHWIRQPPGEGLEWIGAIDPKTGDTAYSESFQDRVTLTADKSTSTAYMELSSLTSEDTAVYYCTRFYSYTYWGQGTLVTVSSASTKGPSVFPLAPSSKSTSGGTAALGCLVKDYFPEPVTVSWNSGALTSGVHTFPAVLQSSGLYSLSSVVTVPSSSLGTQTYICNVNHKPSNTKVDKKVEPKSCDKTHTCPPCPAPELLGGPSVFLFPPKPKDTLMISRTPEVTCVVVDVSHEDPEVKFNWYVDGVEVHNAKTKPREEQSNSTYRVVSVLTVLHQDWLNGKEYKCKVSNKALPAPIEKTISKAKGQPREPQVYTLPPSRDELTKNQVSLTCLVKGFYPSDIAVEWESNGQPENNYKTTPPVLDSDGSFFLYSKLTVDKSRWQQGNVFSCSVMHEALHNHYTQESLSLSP
light: B1 light
notes: as for B24
B43: GpH7-B3 variant Y296_18N/GpL16-k0 (antibody, human IgG1, kappa)
heavy: not shown
light: B1 light
notes: as for B24
B44: GpH7-B3 variant T335_02A/GpL16-k0 (antibody, human IgG1, kappa)
heavy: not shown
light: B1 light
notes: as for B24
B45: GpH7-B3 variant T335_07I/GpL16-k0 (antibody, human IgG1, kappa)
heavy: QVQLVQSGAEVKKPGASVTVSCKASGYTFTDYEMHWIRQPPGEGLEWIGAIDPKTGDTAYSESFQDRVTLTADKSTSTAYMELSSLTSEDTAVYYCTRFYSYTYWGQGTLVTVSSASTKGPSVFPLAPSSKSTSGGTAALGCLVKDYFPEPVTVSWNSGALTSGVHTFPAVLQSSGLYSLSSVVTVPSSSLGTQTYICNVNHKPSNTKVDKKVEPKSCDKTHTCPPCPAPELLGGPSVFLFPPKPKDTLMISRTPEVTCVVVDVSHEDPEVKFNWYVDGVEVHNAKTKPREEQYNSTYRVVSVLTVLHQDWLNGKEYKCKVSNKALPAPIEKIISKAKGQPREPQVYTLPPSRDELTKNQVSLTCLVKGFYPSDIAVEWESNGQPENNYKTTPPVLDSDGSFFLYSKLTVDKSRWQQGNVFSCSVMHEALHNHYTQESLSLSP
light: B1 light
notes: as for B24
B46: GpH7-B3 variant T335_20W/GpL16-k0 (antibody, human IgG1, kappa)
heavy: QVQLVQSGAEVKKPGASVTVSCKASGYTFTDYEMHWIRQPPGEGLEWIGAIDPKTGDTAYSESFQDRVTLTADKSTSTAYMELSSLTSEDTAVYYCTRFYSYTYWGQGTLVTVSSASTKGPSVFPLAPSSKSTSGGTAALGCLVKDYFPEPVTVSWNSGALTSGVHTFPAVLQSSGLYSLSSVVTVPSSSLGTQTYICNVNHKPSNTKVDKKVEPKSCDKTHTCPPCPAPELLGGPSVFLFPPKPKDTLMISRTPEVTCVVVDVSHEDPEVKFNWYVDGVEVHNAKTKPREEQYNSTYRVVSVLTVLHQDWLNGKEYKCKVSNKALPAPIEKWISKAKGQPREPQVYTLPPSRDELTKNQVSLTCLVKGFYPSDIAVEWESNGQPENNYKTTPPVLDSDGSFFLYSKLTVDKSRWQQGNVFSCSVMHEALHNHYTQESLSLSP
light: B1 light
notes: as for B24
B47: GpH7-B3 variant Y300_18N/GpL16-k0 (antibody, human IgG1, kappa)
heavy: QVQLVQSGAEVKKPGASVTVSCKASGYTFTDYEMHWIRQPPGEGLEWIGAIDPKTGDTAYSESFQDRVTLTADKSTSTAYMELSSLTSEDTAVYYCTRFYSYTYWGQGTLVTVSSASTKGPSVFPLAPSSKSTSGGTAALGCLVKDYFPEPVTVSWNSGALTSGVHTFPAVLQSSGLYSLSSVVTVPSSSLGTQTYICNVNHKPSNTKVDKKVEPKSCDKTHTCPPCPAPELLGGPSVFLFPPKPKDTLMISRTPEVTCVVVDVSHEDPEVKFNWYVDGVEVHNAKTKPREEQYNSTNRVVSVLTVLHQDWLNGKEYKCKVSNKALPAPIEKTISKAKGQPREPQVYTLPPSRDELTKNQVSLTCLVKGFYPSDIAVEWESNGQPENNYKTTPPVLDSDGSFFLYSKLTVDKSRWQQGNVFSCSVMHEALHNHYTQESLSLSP
light: B1 light
notes: as for B24
B48: GpH7-B3 variant T335_19Q/GpL16-k0 (antibody, human IgG1, kappa)
heavy: not shown
light: B1 light
notes: as for B24
B49: GpH7-B3 variant T335_01G/GpL16-k0 (antibody, human IgG1, kappa)
heavy: not shown
light: B1 light
notes: as for B24
B50: GpH7-B3 variant Y296_07I/GpL16-k0 (antibody, human IgG1, kappa)
heavy: not shown
light: B1 light
notes: as for B24
B51: GpH7-B3 variant Y296_20W/GpL16-k0 (antibody, human IgG1, kappa)
heavy: not shown
light: B1 light
notes: as for B24
B52: GpH7-B3 variant S337_20W/GpL16-k0 (antibody, human IgG1, kappa)
heavy: not shown
light: B1 light
notes: as for B24
B53: GpH7-B3 variant S337_16H/GpL16-k0 (antibody, human IgG1, kappa)
heavy: not shown
light: B1 light
notes: as for B24
B54: GpH7-B3 variant T335_15Y/GpL16-k0 (antibody, human IgG1, kappa)
heavy: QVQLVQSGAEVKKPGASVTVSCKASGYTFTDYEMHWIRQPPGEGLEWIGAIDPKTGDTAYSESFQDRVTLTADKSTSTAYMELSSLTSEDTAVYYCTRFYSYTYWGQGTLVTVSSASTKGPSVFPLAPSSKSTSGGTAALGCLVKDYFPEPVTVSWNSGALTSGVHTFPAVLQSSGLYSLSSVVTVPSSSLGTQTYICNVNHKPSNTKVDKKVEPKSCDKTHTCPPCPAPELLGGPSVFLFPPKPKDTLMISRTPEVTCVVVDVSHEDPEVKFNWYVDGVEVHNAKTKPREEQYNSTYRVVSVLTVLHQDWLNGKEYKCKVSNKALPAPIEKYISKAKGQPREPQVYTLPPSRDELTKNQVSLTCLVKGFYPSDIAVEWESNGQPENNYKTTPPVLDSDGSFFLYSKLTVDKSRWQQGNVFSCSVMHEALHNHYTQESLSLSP
light: B1 light
notes: as for B24

These binders were tested against T2, FcγRIIIa extracellular domain with C-terminal His tag (human, UniProt P08637 17-208) (assay: SPR relative binding; GpH7-A5/GpH7-B3/GpL16-k0 = 100).
T2 construct: extracellular domain; also called FcgRIIIa; 3a; not shown: His tag at the C terminus
Description: (§1) Analysis of interaction between objective antibody and the FcγR was carried out using Biacore T100 (GE Healthcare). HBS-EP+ (GE Healthcare) was used as the running buffer, and the measurement temperature was set to 25° C. Chips produced by immobilizing the antigen peptide by the amine coupling method to a Series S Sencor Chip CM5 (GE Healthcare), or alternatively, chips produced by allowing preliminarily biotinylated antigen peptides to interact with and immobilize onto a Series S Sensor Chip SA (certified) (GE Healthcare) were used. Antibodies of interest were captured onto an antigen peptide-immobilized chip, and allowed to interact to each FcγR diluted with running buffer. To regenerate and repeatedly use the chip, the antibodies captured on the chip were washed off by reacting 10 mM glycine-HCl, pH 1.5.
(§2) The FcγR-binding activity of each antibody was assessed primarily using as an indicator the FcγR-binding activity and dissociation constant for FcγR.

T2 sequence (P08637 17-208): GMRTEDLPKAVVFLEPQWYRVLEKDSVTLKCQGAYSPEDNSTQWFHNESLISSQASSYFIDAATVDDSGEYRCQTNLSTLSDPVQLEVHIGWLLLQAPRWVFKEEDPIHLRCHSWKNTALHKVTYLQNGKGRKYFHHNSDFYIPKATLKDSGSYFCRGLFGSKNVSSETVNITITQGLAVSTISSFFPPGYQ

He/Con_3a | Binder
155 % of control | B1
105 % of control | B2
118 % of control | B3
121 % of control | B4
104 % of control | B5
106 % of control | B6
112 % of control | B7
160 % of control | B8
103 % of control | B9
101 % of control | B10
122 % of control | B11
114 % of control | B12
101 % of control | B13
139 % of control | B14
121 % of control | B15
111 % of control | B16
104 % of control | B17
111 % of control | B18
112 % of control | B19
103 % of control | B20
109 % of control | B21
103 % of control | B22
101 % of control | B23

Each binder was assayed against T1, FcγRIIa R (human FcγRIIa, allotype R, …) (assay: SPR (Biacore), relative binding vs GpH7-B3/GpL16-k0).
Description: as §1, §2

Ho/Con_2aR | Binder
90.3 relative, control = 100 | B24
90.2 relative, control = 100 | B25
104 relative, control = 100 | B26
109 relative, control = 100 | B27
100 relative, control = 100 | B28
88.9 relative, control = 100 | B29
103 relative, control = 100 | B30
84 relative, control = 100 | B31
100 relative, control = 100 | B32
102 relative, control = 100 | B33
89.5 relative, control = 100 | B34
146 relative, control = 100 | B35
94.5 relative, control = 100 | B36
100 relative, control = 100 | B37
102 relative, control = 100 | B38
102 relative, control = 100 | B39

Ho/Con_2aR | Binder
106 relative, control = 100 | B40
94 relative, control = 100 | B41
88.1 relative, control = 100 | B42
93.7 relative, control = 100 | B43
102 relative, control = 100 | B44
107 relative, control = 100 | B45
101 relative, control = 100 | B46
87.6 relative, control = 100 | B47
102 relative, control = 100 | B48
97.7 relative, control = 100 | B49
83.1 relative, control = 100 | B50
107 relative, control = 100 | B51
105 relative, control = 100 | B52
107 relative, control = 100 | B53
107 relative, control = 100 | B54
